Results published in the DeepSol protein solubility set.

Assay: soluble on expression in E. coli; label from the status in PepcDB or PDB records
In the case of “MGMACLTMTEMEATSTSPVHQNGDIPGSANSVKQIEPVLQVYLYHSLGQAEGEYLKFPSGEYVAEEICVAASKACGITPVYHNMFALMSETERIWYPPNHVFHIDESTRHDILYRIRFYFPHWYCSGSSRTYRYGVSRGAEAPLLDDFVMSYLFAQWRHDFVHGWIKVPVTHETQEECLGMAVLDMMRIAKEKDQTPLAVYNSVSYKTFLPKCVRAKIQDYHILTRKRIRYRFRRFIQQFSQCKATARNLKLKYLINLETLQSAFYTEQFEVKESARGPSGEEIFATIIITGNGGIQWSRGKHKESETLTEQDVQLYCDFPDIIDVSIKQANQECSNESRIVTVHKQDGKVLEIELSSLKEALSFVSLIDGYYRLTADAHHYLCKEVAPPAVLENIHSNCHGPISMDFAISKLKKAGNQTGLYVLRCSPKDFNKYFLTFAVERENVIEYKHCLITKNENGEYNLSGTKRNFSNLKDLLNCYQMETVRSDSIIFQFTKCCPPKPKDKSNLLVFRTNGISDVQISPTLQRHNNVNQMVFHKIRNEDL”, the “soluble on expression in E. coli” value is reported as “not soluble”.
In the case of “MGMLGLDLLKEVPGLLEEIKALPLRLDEERFRFWLQQDYPFVEALYRYQVGLLLEAPQAHRAPLVQALMATVEELDWLLLQGASPSAPVHPVRAGYIALLEEMGRLPYAYRVVFFYFLNGLFLEAWAHHVPEEGPWAELSQHWFAPEFQAVLYDLEVLARGLWEDLDPEVVRTYLRRILEAEKATWSLLL”, the “soluble on expression in E. coli” value is reported as “soluble”.
With “MGNAGESKKSNSDSAKGEEKASGSLTISGSSAMQPLVLAAAEKFMEENPDADIQVQAGGSGTGLSQVSEGAVQIGNSDVFAEEKEGIDAKALVDHQVAVVGMAAAVNPDAGVKDISKDELKKIFTGKIKNWKELGGKDQKITLVNRPDSSGTRATFVKYALDGAEPAEGITEDSSNTVKKIIADTPGAIGYLAFSYLTDDKVTALSIDGVKPEAKNVATGEYPIWAYQHSYTKGEATGLAKEFLDYLKSEDIQKSIVTDQGYIPVTDMKVTRDANGKQSLEHHHHHH” the “soluble on expression in E. coli” value was “not soluble”.
For “MGNIIRIGMADLKASHHPAILTTLGLGSCVGIALYDRTTKIVGLAHAMLPDSSQVKNKTNAAKFVDTAIELLVKEMLSLGASKKRIVAKLAGGAQMFTFTQGAELMRIGQRNVAAAKSKLESLDIPVVSEDTGGNYGRTVELDSESGMLLIRTIGYGTKQI”, the “soluble on expression in E. coli” value was “not soluble”.
With “MGNKAERHRAIQEIVRREEIGTQKELVERLRQLGFEVTQATVSRDIAELGLARIALGKGRHRYVLPAADLPENAYEELKRQFGLFVRDVDRGGNLLVVKTAEGHASGIAYLLDRLRRDEIVGTLAGDDTILVVARTEEAAQALEDEFAGLLVEGRALRRALSGS” the “soluble on expression in E. coli” value was “soluble”.
For “MGNRSSSHYPPPPHWMHQRTSYSTTTSPYPEAKQRPIAPGAFAEPYMHHNPHHPQSKAQMRRSMISLNADSGYMGGPDSERLRQMRGSRMSLNQIDFEPAMMPPPRILIPPDAKTLKKLEKMEKKHQKLMKKLGARGIPIQMPVPPPPPMHPMYSRAISYDDLHRMHEAPEIDVRMRQRDWRTSDERRGLPTRRETQSQYVKHNYSSTNRRAELNGSLASSSPMTSSEEGGHSSDPWNTSSISSGKRDIISPPMYSSTPHHHNHHNHQQLQHHQVIKSPQPPITKTIEVKVERSEKVEQQVSEPTKRAPPTAAQTASSTSSRIQHNQTLNNSNATYAQPIIRRQPSYGSRSSSIATSQMRCDQSEIDFSWVNEEEDKLKRESKRIDSLPEFYFGMDPPPVPSDNEKENDEKRNRRKSSVLEKTAAFEIEARRNDRKEPSFLSRSSHQLLTTSEIPPADYSPLSIHTKEIGGPAERRIYRIQKQQQQHSSEDRRYRSSIAF”, the “soluble on expression in E. coli” value was “not soluble”.
For “MGNTAMWMSCNPTIPILFGIQVKIFPLNQIFNHIHPARYAVTFENNVDSKLRRHWVAGATIRIIDRQTDEVIAKKTIYVFEKGLDGTGGARMPWKFAILCNKERLTSSEPLSDFVLSVLKPYILRPLYIASLRRDD”, the “soluble on expression in E. coli” value was “not soluble”.
With “MGPAKKKKKGKEKKFRRELGSWSAVELEKFIEYKAEDAGKKVIYINPKYSPQKCSRCGYVSKENRHDSVFKCKNCGFELNADLNASRNIEVIRVSEYFRLLSASQSLLFNETPLTGGAGDQRQAPKLLEHHHHHH” the “soluble on expression in E. coli” value was “soluble”.
With “MGPKRRQLTFREKSRIIQEVEENPDLRKGEIARRFNIPPSTLSTILKNKRAILASERKYGVASTCRKTNKLSPYDKLEGLLIAWFQQIRAAGLPVKGIILKEKALRIAEELGMDDFTASNGWLDRFRRRRS” the “soluble on expression in E. coli” value was “soluble”.
With “MGQKMKNAPVYFTIAQVRHNPVLRLGSYAPDIQDRMRKAGYPDFKKGIAMAFTLAPQLGDAPQTQPPVVEQVERLMFFSTDSTRGFIVEQNALSFHTTEYETFEALADEFMRGLAIVHECVTLAHSERIGLRYLDAVVPPGGETGLAEYLAPGVLGLSSRLPEDVTVSHSFSETHIQTAKCAVLARTIIQSGPLGFPMDLQPIGVKVADRFREINGVHAIVDTDASIEGRHPFNLELIKSQLQVLRDGVGIAFDATVTPIAVSAWNS” the “soluble on expression in E. coli” value was “not soluble”.
With “MGREFLDLFEQWAESYDRSVEGYDEQYRDVFAGYDRILSTVADKAGQVVLEFGVGTGNLTKKLLERGKRVYGIEPSAPMRKKAAEKLNGRAVILEGDFLQFPTPPEPIDTIASTYAFHHLTDAEKDEALAKYSQLLHPGGKIVFADTAFRDKEAFRQAIEEARARGFHDLADDLEREYYTTLDVLASLFSKHGFSASFAQQNAFVWVMEAVKQTT” the “soluble on expression in E. coli” value was “not soluble”.
In the case of “MGRGRSSSSSSIESSSKSNPFGASSSTRNLSTDLRLGLSFGTSSGTQYFNGGYGYSVAAPAVEDAEYVAAVEEEEENECNSVGSFYVKVNMEGVPIGRKIDLMSLNGYRDLIRTLDFMFNASILWAEEEDMCNEKSHVLTYADKEGDWMMVGDVPWEMFLSTVRRLKISRANYHY”, the “soluble on expression in E. coli” value is reported as “soluble”.
In the case of “MGRLSGKTILVTGAASGIGRAALDLFAREGASLVAVDREERLLAEAVAALEAEAIAVVADVSDPKAVEAVFAEALEEFGRLHGVAHFAGVAHSALSWNLPLEAWEKVLRVNLTGSFLVARKAGEVLEEGGSLVLTGSVAGLGAFGLAHYAAGKLGVVGLARTLALELARKGVRVNVLLPGLIQTPMTAGLPPWAWEQEVGASPLGRAGRPEEVAQAALFLLSEESAYITGQALYVDGGRSIVGPPGLPPGFGPKGGERHAHVL”, the “soluble on expression in E. coli” value is reported as “soluble”.
With “MGSDAKNLMSDGNVQIVKTGEVIGATQLTEGELIVEAGGRAENTVVTGAGWLKVATGGIAKCTQYGNNGTLSVSDGAIATDIVQSEGGAISLSTLATVNGRHPEGEFSVDKGYACGLLLENGGNLRVLEGHRAEKIILDQEGGLLVNGTTSAVVVDEGGELLVYPGGEASNCEINQGGVFMLAGKASDTLLAGGTMNNLGGEDSDTIVENGSIYRLGTDGLQLYSSGKTQNLSVNVGGRAEVHAGTLENAVIQGGTVILLSPTSADENFVVEEDRAPVELTGSVALLDGASMIIGYGAELQQSTITVQQGGVLILDGSTVKGDSVTFIVGNINLNGGKLWLITDAATHVQLKVKRLRGEGAICLQTSAKEISPDFINVKGEVTGDIHVEITDASRQTLCNALKLQPDEDGIGATLQPA” the “soluble on expression in E. coli” value was “soluble”.
For “MGSDKIHHHHHHAADVSFPDAVRKVAVINNMPVLKTKDNHEILSSELEGDGKVASEALAENIANVNYFDQVIICDSVFRAQDKVPRVNVILTKEEVRKLSEDLGVDMILSFDRIHIQTKPGVLFYPDFPMPIDAVDGIISPIVRVYIPNRDKPLFVVAKQDTISWEIEPALSDRKIVKEASEYAASIPVEHLLPHWDEVARFYYDGGNIEMRDAGVYLRENNWDEAYSQWKIAYEKRKGQQKMKAAFNIALYYEIKDNVEQAKEWLGKAKKLVKSGSRDEQLIAFYSLELEKRGSKLSQLRIQMKRFDDNF”, the “soluble on expression in E. coli” value was “not soluble”.
In the case of “MGSDKIHHHHHHACEEEGLGNEETPFAPYVLSLGINSNGTTTYYVVTAPELMSGTINAVAKGIEQNGYRDYEQAGQTVFSIGGLGLTSATGIVRDANGYLTERGDFVFNSSLNAFTQMDGQNMIGLELPANKESGDQMTLYTVNISDVSITSQVKAPVFPLNQLEWPSITGMCYSEGNVYVTYFPMNPSTFETLYTDTTFVAVYSYPDMQFKTLMKDTRTGPAGSWNAFNGIFKVESGDMYIMSNSAIANGFSQSTKNAAFLRIPKGETHFDDYYFDFETVSGGLKPAHIKYIGNGLVFAEVSTISPQTSADRWGDKSLKCCIIDLNNKTVRDIKEIPVHNGDGGRRFAALVDGGYVYRPVTASEGTYIYQVDPQAATAVRGAKVSTTFVGGFFRLD”, the “soluble on expression in E. coli” value is reported as “not soluble”.
For “MGSDKIHHHHHHACRQVATESRVQPASFEVGSSMIADTFFLDSLSLFMPETNEEALINNIDRVYESNGRYFILDKRMKQVLCYTLSGKHLFTIHAVGNGKGEYVDLFDIAIDEAENKLLLLTYPSQILYYDLEGTYLSSYPLDDTYQSFAVDKGFIYLRNDTYANGVVSDYSLIVINKETGKQTSLLEPLYETAPFCSSGNYQITNTASVLFTRKFDNHIYRITGESIEPLYMVDWKDKAFPESDKQRQFQCNDLNQLCYQGKYVYTMTDLCDTPSYLLFRTNQPGMCLLSKATSTVNNYQVIINTDYQLPLPNYMSVEGKQSRIFFIYSSEVLCEQKKLSAEEDINEKMSSLLGQIKEGDNPVIFTYHVK”, the “soluble on expression in E. coli” value was “not soluble”.
With “MGSDKIHHHHHHADDDTPVVTLGTSLTDSQRNGTLKTLTAPLNGGNYQTITVTGSDLVKYLNPSGDNFTTSSGVWSSAMIQKTSSGSGINVKILDYNGKNNITTITANQYKNAALTAGITDANIYVTSAVPIDGSGALAGVYAAYAKNGNALNQKQVNAAQDEMNTLSGITQDNKNKEGYSDAQLNNAVAGAKSEMAKQGQNISDSQIRDIVNNQININHLGNTINNNQKNQIVNLLIEIRDSGALKNGSFKSQASKLSSQIQNGAKNIFNKFNTQENRSWLQQLWDNVVNFFSHIFG” the “soluble on expression in E. coli” value was “not soluble”.
For “MGSDKIHHHHHHAEDYMETDKGHDTLTLTVNQQEIVLNEKNHTQEALTLSWTTGTNYGSGNRISYTLEIAKAGTDFARAYSVDLGTGTYQWTKKTEELNQFLNTQLGVGYAEKVSLEARITATVAGMEEKEQRATVALDVTTYQPVTPTLYLIGEAAPNGWSADQATPMERTDNGQFTWTGKLNTGVFKFITTLGEFLPSYNRDAAAGEELRLIYRTSGDEPDEPFTVSKEATYIVKVDLLDLTMTMTETENIGWRFEEFYIVGSFTGDNGWGFEALSKDAVQMNLFHYGAVIPWKADGDFKFTSVTDFGQSDAFFHPTEGNAPYTSTSVVLGGEDNKWQMKESECGKAYKVLFLTAKGKEKMLMRPFTPYEGLYLVGDATPNGWSIDNATPMAKSADSPYIFTWSGTLNTGEMKISCDKQSDWNGDWLMADKSGKAPTGEVETALFTSKTDAELKNMYPDTDLGSLDNKWNIQEAGSYRITIDQLKETISIVKQ”, the “soluble on expression in E. coli” value was “not soluble”.
With “MGSDKIHHHHHHAKESEQKVTIDSAKHEKHTKDKEENNSANTVFFDKINDLLVASVKEFEGTVGISYLDLETGEQRSVNGQHEFYTASTIKVPLTMLVADTVASGQKKWTDLIPYNAEEDYEEGTGIIAYNIQPEYPLKTLQEYAITYSDNIAKNMLYDTLGGDAKAKREMYQRYLHKTPSIEEPQFSSEDALVILQKLYTEKATKPDYQAIYDSMKQSVFHERMETPTTQGKVAHKIGSYDEFIHDMGILETPHPFALAIFTKGPDNAKSAAFIASVTDKLWQLQVSEYPNQ” the “soluble on expression in E. coli” value was “not soluble”.
With “MGSDKIHHHHHHALLGTTGLLHAPTADMQRDKTFLFGGNYLNTHPLSTHFRSSEVGYTFNYYINITIFPWLEVSYICTLVHADHGSTYFPEQSWGKFTNQDRAFSARLRLWKEGWWKEWTPQIVLGLDDPTSHADHGGGELVSGNTSGSNNYATRYYLAVTKHLDVQNIGEWGIHAAFVYGNAKGIEHYKRPSFGTNFRFQLLGDQPLIKVVNNLNLMAEYDARTVNIGAHYQLWKDHINLIAELNNGKYFSGGIYFKIHLK” the “soluble on expression in E. coli” value was “not soluble”.
